Assay results: the supplement of paper PMC12783771
± gives the standard deviation of the averaged measurements.

B1: library; numbered along this chain (parent)
chain: MNIQIGELAKRTACPVVTIRFYEQEGLLPPPGRSRGNFRLYGEEHVERLQFIRHCRSLDMPLSDVRTLLSYRKRPDQDCGEVNMLLDEHIRQVESRIGALLELKHHLVELREACSGARPAQSCGILQGLSDCVCDTRGTTAHPSD

Key:
[1] = variants of: B1; assay: sfGFP reporter fluorescence (15 h) (µM FITC); higher = higher leak; conditions: library round: Round 0; ligand: none
Procedure, shortened: (§1)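 Values are endpoint sfGFP fluorescence given as µM FITC equivalents. Fluorescence was read at 485/528 nm on a Synergy Neo2, and FITC standard curves were prepared in 50 mM sodium borate pH 8.5. Reactions of 1 μL combined BL21 Star (DE3) PANOx-SP extract, pPbrR-sfGFP reporter, 30 μg/mL GamS and linear PbrR templates (PCR-made, Echo-normalized to 5 nM), with 1 µM lead chloride, 30 µM zinc acetate or no metal, for 15 hr at 30 °C.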

[2] = variants of: B1; assay: sfGFP reporter fluorescence (15 h) (µM FITC); higher = stronger transcriptional activation; conditions: library round: Round 0
Procedure, shortened: as §1

Variant | sfGFP reporter fluorescence [1] | sfGFP reporter fluorescence ([2]; ligand: 1 µM Pb) | sfGFP reporter fluorescence ([2]; ligand: 30 µM Zn)
E94V | 0.059 ± 0.0042 | 0.0847 ± 0.0052 | 0.739 ± 0.052
E94F | 0.0563 ± 0.0044 | 0.0579 ± 0.001 | 0.177 ± 0.006
E94K | 0.0612 ± 0.0026 | 0.0793 ± 0.0034 | 0.824 ± 0.043
E94Y | 0.0577 ± 0.0034 | 0.0553 ± 0.0047 | 0.153 ± 0.0047
E94P | 0.0535 ± 0.0026 | 0.0533 ± 0.0023 | 0.05571 ± 0.00052
E94A | 0.0738 ± 0.0044 | 0.0867 ± 0.0065 | 0.333 ± 0.015
E94D | 0.0579 ± 0.0052 | 0.0623 | 0.32 ± 0.013
E94W | 0.0577 ± 0.0039 | 0.05516 ± 0.00026 | 0.143 ± 0.0054
E94R | 0.0597 ± 0.0052 | 0.0803 ± 0.0031 | 0.722 ± 0.032
E94I | 0.0555 ± 0.0034 | 0.08008 ± 0.00026 | 0.714 ± 0.013
E94T | 0.0673 ± 0.0029 | 0.108 ± 0.03 | 1.27 ± 0.29
E94G | 0.0553 ± 0.0036 | 0.0656 ± 0.0031 | 0.52721 ± 0.00026
E94Q | 0.0632 ± 0.0013 | 0.0856 ± 0.008 | 1.02 ± 0.07
E94N | 0.0607 ± 0.0013 | 0.0755 ± 0.0047 | 0.659 ± 0.026
D87A | 0.0596 ± 0.0049 | 0.0652 ± 0.0015 | 0.393 ± 0.011
E88A | 0.061 ± 0.0034 | 0.0859 ± 0.0091 | 0.965 ± 0.07
C79N | 0.05919 ± 0.00026 | 0.0566 ± 0.0013 | 0.0557
C79S | 0.0592 ± 0.0018 | 0.059 ± 0.001 | 0.055
C79Y | 0.0597 ± 0.0031 | 0.0585 ± 0.00078 | 0.0564 ± 0.001
C79P | 0.057 ± 0.00078 | 0.05772 ± 0.00026 | 0.05351 ± 0.00052
C79Q | 0.05901 ± 0.00052 | 0.05937 ± 0.00052 | 0.0566 ± 0.00078
C79L | 0.0555 ± 0.0023 | 0.0553 ± 0.0021 | 0.05498 ± 0.00052
C79V | 0.0572 ± 0.0015 | 0.0586 | 0.05552 ± 0.00026

Variant | sfGFP reporter fluorescence [1] | sfGFP reporter fluorescence ([2]; ligand: 1 µM Pb) | sfGFP reporter fluorescence ([2]; ligand: 30 µM Zn)
C79W | 0.0583 ± 0.0021 | 0.0588 ± 0.0013 | 0.0548 ± 0.0034
C79K | 0.06011 ± 0.00052 | 0.0614 ± 0.00078 | 0.0548 ± 0.00078
C79R | 0.06011 ± 0.00052 | 0.0629 ± 0.0018 | 0.059 ± 0.001
C79M | 0.05974 ± 0.00052 | 0.06121 ± 0.00052 | 0.0592 ± 0.0013
C79T | 0.0575 ± 0.0031 | 0.0592 ± 0.0018 | 0.0555 ± 0.0018
L101A | 0.0632 ± 0.0013 | 0.0746 ± 0.0013 | 0.555 ± 0.17
K104D | 0.0592 ± 0.006 | 0.138 ± 0.046 | 1.06 ± 0.18
K104H | 0.0762 ± 0.0036 | 0.189 ± 0.081 | 1.56 ± 0.38
K104I | 0.0616 ± 0.0057 | 0.165 ± 0.044 | 1.22 ± 0.053
K104F | 0.0581 ± 0.011 | 0.117 ± 0.029 | 0.889 ± 0.037
K104R | 0.0621 ± 0.006 | 0.0958 ± 0.024 | 0.946 ± 0.16
K104Q | 0.0601 ± 0.0026 | 0.0832 ± 0.015 | 0.901 ± 0.022
K104C | 0.0614 ± 0.0091 | 0.133 ± 0.026 | 1.32 ± 0.18
K104M | 0.059 ± 0.0088 | 0.111 ± 0.035 | 1.13 ± 0.15
K104S | 0.0612 ± 0.0021 | 0.092 ± 0.02 | 1 ± 0.052
K104P | 0.0509 ± 0.0073 | 0.0544 ± 0.0054 | 0.08191 ± 0.00078
K104N | 0.0557 ± 0.0073 | 0.0823 ± 0.025 | 0.879 ± 0.15
K104E | 0.0552 ± 0.0086 | 0.0691 ± 0.015 | 0.635 ± 0.12
K104A | 0.05974 ± 0.00052 | 0.0759 ± 0.0021 | 0.591 ± 0.037
K104L | 0.0592 ± 0.0049 | 0.135 ± 0.03 | 1.11 ± 0.054
K104T | 0.0619 ± 0.0021 | 0.0925 ± 0.015 | 0.865 ± 0.13
K104G | 0.0526 ± 0.0075 | 0.0524 ± 0.0057 | 0.22 ± 0.0034
V93A | 0.0585 ± 0.0013 | 0.0579 ± 0.0031 | 0.128 ± 0.0062

Variant | sfGFP reporter fluorescence [1] | sfGFP reporter fluorescence ([2]; ligand: 1 µM Pb) | sfGFP reporter fluorescence ([2]; ligand: 30 µM Zn)
E102A | 0.0735 ± 0.0018 | 0.0771 ± 0.0029 | 0.302 ± 0.057
S95A | 0.0625 ± 0.0013 | 0.0759 ± 0.0062 | 0.797 ± 0.063
V82K | 0.0601 ± 0.0021 | 0.0566 ± 0.0039 | 0.0563 ± 0.0039
V82T | 0.0588 ± 0.0013 | 0.059 ± 0.0021 | 0.0583 ± 0.0057
V82N | 0.0597 ± 0.001 | 0.0597 ± 0.0015 | 0.05644 ± 0.00052
V82I | 0.0572 ± 0.0015 | 0.0658 ± 0.0023 | 0.676 ± 0.0088
V82A | 0.06047 ± 0.00052 | 0.057 ± 0.0013 | 0.0786 ± 0.0039
V82R | 0.0605 ± 0.0015 | 0.05937 ± 0.00052 | 0.0568 ± 0.001
V82C | 0.05956 ± 0.00026 | 0.0588 ± 0.00078 | 0.0898 ± 0.0042
V82G | 0.0555 ± 0.0023 | 0.0564 ± 0.001 | 0.0548 ± 0.0018
V82Y | 0.0588 ± 0.0034 | 0.05864 ± 0.00052 | 0.0544 ± 0.0013
V82F | 0.0572 | 0.0572 ± 0.0015 | 0.053 ± 0.0023
V82D | 0.057 ± 0.0044 | 0.0597 | 0.055
V82W | 0.0592 ± 0.0013 | 0.05827 ± 0.00052 | 0.0555 ± 0.00078
V82H | 0.0594 ± 0.0015 | 0.05974 ± 0.00052 | 0.0586 ± 0.001
V82L | 0.0574 ± 0.0034 | 0.0583 ± 0.001 | 0.0724 ± 0.0044
V82M | 0.0594 | 0.0586 | 0.06212 ± 0.00026
V82S | 0.0592 ± 0.0023 | 0.057 ± 0.0018 | 0.05552 ± 0.00026
V82P | 0.057 ± 0.00078 | 0.05754 ± 0.00052 | 0.0577 ± 0.0013
V82Q | 0.0579 ± 0.0021 | 0.05699 ± 0.00026 | 0.0552 ± 0.0013
V82E | 0.0568 ± 0.0026 | 0.0586 ± 0.0015 | 0.0541 ± 0.0029
G98A | 0.0614 ± 0.00078 | 0.0762 ± 0.0021 | 0.793 ± 0.06
M84A | 0.0618 ± 0.0029 | 0.0687 ± 0.0029 | 0.807 ± 0.02

Variant | sfGFP reporter fluorescence [1] | sfGFP reporter fluorescence ([2]; ligand: 1 µM Pb) | sfGFP reporter fluorescence ([2]; ligand: 30 µM Zn)
L85F | 0.057 ± 0.0029 | 0.0559 ± 0.0013 | 0.0828 ± 0.0021
L85S | 0.059 ± 0.0021 | 0.059 ± 0.0015 | 0.0627
L85K | 0.0585 ± 0.0029 | 0.0566 ± 0.00078 | 0.0645 ± 0.001
L85T | 0.0601 ± 0.0015 | 0.057 ± 0.0013 | 0.1118 ± 0.00052
L85N | 0.0564 ± 0.0021 | 0.0575 ± 0.0015 | 0.0612 ± 0.0015
L85W | 0.0618 ± 0.0018 | 0.0597 ± 0.0036 | 0.157 ± 0.013
L85E | 0.0605 ± 0.0015 | 0.0586 ± 0.0021 | 0.05662 ± 0.00026
L85R | 0.0596 ± 0.0018 | 0.0577 ± 0.00078 | 0.0652 ± 0.001
L85Y | 0.0592 ± 0.0039 | 0.0603 ± 0.00078 | 0.253 ± 0.0096
L85V | 0.0585 ± 0.0018 | 0.0594 ± 0.0026 | 0.1479 ± 0.0013
L85C | 0.0607 ± 0.0018 | 0.0577 ± 0.0013 | 0.117 ± 0.0039
L85P | 0.057 ± 0.0023 | 0.05809 ± 0.00026 | 0.0555 ± 0.0013
L85M | 0.05754 ± 0.00052 | 0.06945 ± 0.00026 | 0.597 ± 0.017
L85D | 0.0577 ± 0.0013 | 0.0563 ± 0.0013 | 0.0537 ± 0.0013
L85Q | 0.0586 ± 0.001 | 0.0581 ± 0.00078 | 0.0658 ± 0.0023
L85I | 0.0577 ± 0.00078 | 0.06853 ± 0.00052 | 0.6194 ± 0.0057
L85H | 0.0603 ± 0.0018 | 0.05827 ± 0.00052 | 0.0629 ± 0.00078
L85A | 0.05864 ± 0.00052 | 0.0559 ± 0.0023 | 0.07183 ± 0.00052
L85G | 0.0544 ± 0.0023 | 0.0541 ± 0.0013 | 0.0603 ± 0.00078
L103A | 0.0629 ± 0.0013 | 0.06945 ± 0.00026 | 0.918 ± 0.037
